Laboratory results reported in publication PMC3855398.

Target: hGle1B tagged with mCerulean3 (Cer3-hGle1B) or mVenus (Venus-hGle1B) (human) (UniProt Q53GS7)
Test: FRET or BRET

Sequence of UniProt Q53GS7 (Q53GS7 whole entry): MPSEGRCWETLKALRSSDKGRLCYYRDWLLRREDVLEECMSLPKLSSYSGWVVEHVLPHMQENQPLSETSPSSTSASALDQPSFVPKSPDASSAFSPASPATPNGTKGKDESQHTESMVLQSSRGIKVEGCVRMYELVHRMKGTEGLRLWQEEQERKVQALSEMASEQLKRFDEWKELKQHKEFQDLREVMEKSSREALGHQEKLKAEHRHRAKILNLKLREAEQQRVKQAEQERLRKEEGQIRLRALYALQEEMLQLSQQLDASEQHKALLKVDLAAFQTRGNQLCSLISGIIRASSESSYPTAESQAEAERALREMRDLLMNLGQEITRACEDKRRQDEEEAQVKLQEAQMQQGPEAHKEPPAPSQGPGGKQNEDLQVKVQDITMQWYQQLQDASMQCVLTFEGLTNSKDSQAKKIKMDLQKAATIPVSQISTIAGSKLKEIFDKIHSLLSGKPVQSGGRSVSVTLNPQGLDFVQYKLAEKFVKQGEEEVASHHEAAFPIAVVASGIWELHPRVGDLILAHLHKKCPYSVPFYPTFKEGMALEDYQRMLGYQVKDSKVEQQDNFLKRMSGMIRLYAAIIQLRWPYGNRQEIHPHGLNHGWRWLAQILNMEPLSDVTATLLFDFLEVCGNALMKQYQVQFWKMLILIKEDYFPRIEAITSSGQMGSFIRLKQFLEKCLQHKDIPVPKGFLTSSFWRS

## mCerulean3 alone
  FRET efficiency (cytoplasm and nucleoplasm): < 1.25%
  normalized FRET (NFRET) signal (all locations): < 4.08
